Ends that are not written are not given here. * marks the point of attachment. Biotin = O=C1N[C@H]2[C@H](CS[C@H]2CCCCC(=O)*)N1
Key:
[1] = Circular dichroism spectroscopy of LSALT peptide and analogs; format: physicochemical; design: Inducible Helical Structure (50% TFE-benign): unit not given here; conditions: for Inducible Helical Structure (50% TFE-benign) / [θ] (222 nm) 50% TFE / % Inducible Helical Structure (Inducible/50% TFE) / [θ] (222 nm) Benign (No TFE): 222 nm; for % Inducible Helical Structure (Inducible/50% TFE): 50% TFE is considered 100% folded; for [θ] (222 nm) Benign (No TFE): benign buffer (100 mM KCl, 50 mM Na2HPO4/NaH2PO4, pH 7.0)
Experimental: The physical and chemical properties of protein therapeutics are critical factors that influence the ease of manufacturing, development and clinical use. The LSALT peptide was evaluated in terms of its solubility, aggregation state and stability using a variety of biophysical methods.
In circular dichroism spectroscopy the ellipticity value at 222 nm is a measure of a-helical content. 50% trifluoroethanol is a hydrophobic solvent and induces α-helical structure if the structure can be induced. All of the peptides tested can be induced to adopt α-helical structure. The peptides are random coils in benign conditions (non-denaturing). The buffer conditions were aqueous phosphate, pH 7.0.

[2] = target: T1, human membrane dipeptidase (DPEP-1) (Homo sapiens, UniProt P16444); experiment: Membrane dipeptidase enzyme activity assay (Gly-D-Phe, fluorometric); format: biochemical; conditions: lysates of transfected Cos1 cells, substrate Gly-D-Phe
T1 construct: expressed in transfected cells; host or cells: Cos-1
T1 sequence (P16444 17-385): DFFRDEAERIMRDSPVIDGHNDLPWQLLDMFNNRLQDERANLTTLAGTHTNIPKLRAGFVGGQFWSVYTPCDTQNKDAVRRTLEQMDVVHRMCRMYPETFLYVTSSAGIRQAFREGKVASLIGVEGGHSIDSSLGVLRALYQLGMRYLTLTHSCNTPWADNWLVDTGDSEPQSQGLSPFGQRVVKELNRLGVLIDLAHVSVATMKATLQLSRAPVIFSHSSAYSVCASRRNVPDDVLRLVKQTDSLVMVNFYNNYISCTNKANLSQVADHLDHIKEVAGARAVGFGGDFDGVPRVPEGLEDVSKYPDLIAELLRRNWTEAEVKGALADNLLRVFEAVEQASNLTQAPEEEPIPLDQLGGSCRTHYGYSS
Experimental: 24 hours after transfection, DPEP-1 expressing cells weer reseeded on 24 well collagen coated (neutralized) plates and allowed to grow for 24 hours at 37° C. […] Cells were blocked with FBS/NBSA/Tween in PBS for 30 minutes on ice. […] After incubation, cells were washed with PBS and stained with DAPI for 4 minutes on ice. Cells were again washed with PBS, fixed using 4% paraformaldehyde and immunofluoresence microscopy was performed to assess binding. Proteins from human DPEP-1 transfected cells were isolated after 48 hours using octyl-glucoside/RIPA in the absence of protease inhibitors. […] Proteins from transfected cells were isolated after 48 hours using octyl-glucoside/RIPA lysis buffer and western blot analysis was performed to assess DPEP-1 expression using DPEP-1 antibody (Sigma).
The fluorescence signal generated from the conversion of D-Phe to […] in the presence of D-aminoacidoxidase and peroxidase was measured using a fluorescence plate reader.
Proteins from DPEP-1 transfected cells were isolated after 48 hours using octyl-glucoside/RIPA lysis buffer and western blot analysis was performed to assess DPEP-1 expression using a DPEP-1 specific antibody (Proteintech) (FIG. 24B).

DPEP1 = target: T2, DPEP1 (Homo sapiens, UniProt P16444); experiment: Alanine-substituted peptide binding to DPEP1 transfected HEK 293 cells, immunofluorescence; design: expressed in transfected cells; host or cells: HEK 293; conditions: test peptide at 5 uM, 1 hr at room temperature
T2 sequence (P16444 17-385): T1 sequence (P16444 17-385)
Experimental: […] were transfected with DPEP1 or DPEP2, two days prior to assay and were plated onto collagen-coated coverslips one day prior. Then fixed 10 min with 3.7% formaldehyde in PBS, washed 3 times in PBS, incubated with Alanine-substituted test peptide at 5 uM each, 1 hr at room temperature, washed twice with PBS gently, incubated with 1/50 Alexa 568-straptavadin in PBS, 1 hr at room temperature, washed twice with PBS gently and added DAPI Mounted with DAKO Fluorescent mounting media and evaluated for binding under fluorescence microscope.

Row | inhibition of human DPEP1 enzymatic activity [2] | inhibition of human DPEP1 enzymatic activity ([2]; listed as penicillamine) | inhibition of human DPEP1 enzymatic activity ([2]; listed as cilastatin) | Compound | Inducible Helical Structure (50% TFE-benign) [1] | [θ] (222 nm) 50% TFE [1] | % Inducible Helical Structure (Inducible/50% TFE) [1] [%] | [θ] (222 nm) Benign (No TFE) [1] | inducible α-helical structure (in words) ([1]; 50% trifluoroethanol) | binding to DPEP-1 by immunofluorescence (alanine mutants) (DPEP1)
1 |  |  |  | Bio-LSALTPSPSWAKYKAL (Biotin-LSALTPSPSWAKYKAL) [Peptide A11] | 21,682 | −80196 | 27.0 | −58514 |  | 
2 |  |  |  | Bio-LSALTPSPSWLKYKGL (Biotin-LSALTPSPSWLKYKGL) [Peptide A15] | 23,450 | −92167 | 25.4 | −68717 |  | 
3 |  |  |  | Bio-LSALAPSPSWLKYKAL [Peptide A5] | 29,755 | −79198 | 37.6 | −49443 |  | 
4 |  |  |  | Bio-ASALTPSPSWLKYKAL (Biotin-ASALTPSPSWLKYKAL) [Peptide A1] | 37,752 | −119807 | 31.5 | −82054 |  | 
5 |  |  |  | Ac-LSALTPSPSWLKYKAL-amide (Ac-LSALTPSPSWLKYKAL-NH2) [Peptide A18] | 40,612 | −78951 | 51.4 | −38340 |  | 
6 |  |  |  | Bio-LSALTPSPAWLKYKAL [Peptide A9] | 13,436 | −62889 | 21.4 | −49453 |  | 
7 |  |  |  | Bio-LAALTPSPSWLKYKAL [Peptide A2] | 51,374 | −117502 | 43.7 | −66128 | significantly enhances inducible α-helical structure | 
8 | inhibited the activity | can be inhibited |  | CC(C)(S)[C@@H](N)C(=O)O [Penicillamine] |  |  |  |  |  | 
9 |  |  |  | LSALTPSPSWLAYKAL [Pos 12] |  |  |  |  |  | decreased and increased binding to DPEP-1
10 | inhibited the activity |  | can be inhibited | CC1(C)C[C@@H]1C(=O)N/C(=C\CCCCSC[C@H](N)C(=O)O)C(=O)O [Cilastatin] |  |  |  |  |  | 
11 |  |  |  | Bio-LSALTPSPSWLKAKAL (Biotin-LSALTPSPSWLKAKAL) [Peptide A13] | 31,488 | −80841 | 39.0 | −49352 |  | 
12 |  |  |  | Bio-LSALTPSPSALKYKAL (Biotin-LSALTPSPSALKYKAL) [Peptide A10] | 9,583 | −35792 | 26.8 | −26209 |  | 
13 |  |  |  | LSALTPSPSALKYKAL [Pos 10] |  |  |  |  |  | decreased and increased binding to DPEP-1
14 |  |  |  | Bio-LSALTPSPSWLKYKAL-amide (Biotin-LSALTPSPSWLKYKAL-NH2) [Peptide A19] | 77,996 | −153947 | 50.7 | −75952 |  | 
15 |  |  |  | Bio-LSALTGSPSWLKYKAL [Peptide A6] | 28,435 | −70926 | 40.1 | −42491 |  | 
16 |  |  |  | Bio-LSAATPSPSWLKYKAL [Peptide A4] | 16,397 | −76916 | 21.3 | −60519 |  | 
17 |  |  |  | Bio-LSALTPSPSWLKYKAA (Biotin-LSALTPSPSWLKYKAA) [Peptide A16] | 11,796 | −37070 | 31.8 | −25275 |  | 
18 |  |  |  | Bio-LSALTPSPSWLKYAAL (Biotin-LSALTPSPSWLKYAAL) [Peptide A14] | 14,068 | −39862 | 35.3 | −25794 |  | 
19 |  |  |  | Bio-LSALTPSPSWLAYKAL (Biotin-LSALTPSPSWLAYKAL) [Peptide A12] | 8,451 | −36742 | 23.0 | −28292 |  | 
20 |  |  |  | Bio-LSALTPSASWLKYKAL [Peptide A8] | 9,444 | −42335 | 22.3 | −32890 |  | 
21 |  |  |  | Ac-LSALTPSPSWLKYKAL [Peptide A17] | 17,615 | −74897 | 23.5 | −57282 |  | 
22 |  |  |  | Bio-LSALTPAPSWLKYKAL [Peptide A7] | 20,988 | −70198 | 29.9 | −49209 |  | 
23 |  |  |  | LSALAPSPSWLKYKAL [Pos 5] |  |  |  |  |  | decreased and increased binding to DPEP-1
24 |  |  |  | Bio-LSGLTPSPSWLKYKAL [Peptide A3] | 18,865 | −68580 | 27.5 | −49714 |  | 
25 |  |  |  | ASALTPSPSWLKYKAL [Pos 1] |  |  |  |  |  | decreased and increased binding to DPEP-1
